Laboratory results: patent US20210292393A1 (published 2021)

How the values were obtained:
[1] = target: SARS-CoV-2 full length spike protein, V367F mutant (SARS-CoV-2, UniProt P0DTC2 14-1273)
[2] = target: SARS-CoV-2 full length spike protein, D614G mutant (SARS-CoV-2, UniProt P0DTC2 14-1273)
[3] = target: SARS-CoV-2 full length spike protein, D614G mutant (SARS-CoV-2, UniProt P0DTC2 14-1273); remark: listed apart in the source
[4] = target: SARS-CoV-2 full length spike protein, V367F mutant (SARS-CoV-2, UniProt P0DTC2 14-1273); remark: listed apart in the source
[5] = target: SARS-CoV-2 full length spike protein, D614G mutant, expressed on the surface of CHO cells (SARS-CoV-2, UniProt P0DTC2 14-1273)
[6] = target: SARS-CoV-2 full length spike protein, V367F mutant, expressed on the surface of CHO cells (SARS-CoV-2, UniProt P0DTC2 14-1273)

Binder	median fluorescence intensity, fold over isotype control [1] [fold over isotype]	median fluorescence intensity, fold over isotype control [2] [fold over isotype]	median fluorescence intensity, fold over isotype control [5] [fold over isotype]	median fluorescence intensity, fold over isotype control [6] [fold over isotype]	other results
antibody 305 (antibody, V domains shown) VH: QVQLVESGGGVVQPGRSLRLSCAASGFTFSSYAMHWVRQAPGKGLEWVAVISYDGSNKYYADSVKGRFTISRDNSKNTLYLQMNSLRAEDTAVYYCAREQTSYDYVWGTLGAYYYYGMDVWGQGTTVTVSS VL: SSELTQDPAVSVALGQTVRITCQGDSLRSYYASWYQQKPGQAPVLVIYGKNNRPSGIPDRFSGSSSGNTASLTITGAQAEDEADYYCNSRDSSGNHLVFGGGTKLTVL	41	78.9	–	–	–
antibody 298 (antibody, V domains shown) VH: EVQLVESGGGLVQPGGSLRLSCAASGFTVSSNYMSWVRQAPGKGLEWVSVIYSGGSTYYADSVKGRFTISRDNSKNTLYLQMNSLRAEDTAVYYCAREEGEWEKDYYGMDVWGQGTTVTVSS VL: not shown	35.7	66.8	–	–	–
antibody 515 (antibody, V domains shown) VH: EVQLVESGGGLVKPGGSLRLSCAASGFTFSSYSMNWVRQAPGKGLEWVSSISSSSSYIYYADSVKGRFTISRDNAKNSLYLQMNSLRAEDTAVYYCASIAAAGTLYYYYGMDVWGQGTTVTVSS VL: not shown	–	–	–	–	median fold over isotype [3]: 21.6 fold over isotype; median fold over isotype [4]: 9.43 fold over isotype
antibody 302 (antibody, V domains shown) VH: QVQLVQSGAEVRKPGASVKVSCKVSGYTLSELSMHWVRQAPGKGLEWMGGFDPEDGERMYAQKFQGRVTMTEDTSTDTAYMELSSLRSEDTAIYYCTTDLSYLWSGKLEPDYWYFALWGRGTLVTVSS VL: not shown	26.5	45.4	–	–	–
antibody 268 (antibody, V domains shown) VH: QVQLQESGPGLVKPSQTLSLTCTVSGGSISSGSYYWSWIRQPAGKGLEWIGRIYTSGSTNYNPSLKSRVTISVDTSKNQFSLKLSSVTAADTAVYYCARELVGGLLGTIDYWGQGTLVTVSS VL: DIQLTQSPSFLSASVGDRVTITCRASQGISSYLAWYQQKPGKAPKLLIYAASTLQSGVPSRFSGSGSGTEFTLTISSLQPEDFATYYCQQLNSYPYTFGQGTKLEIK	8.9	8.18	–	–	–
antibody 261 (antibody, V domains shown) VH: QVQLVESGGGVVQPGRSLRLSCAASGFTFSSYAMHWVRQAPGKGLEWVAVISYDGSNKYYADSVKGRFTISRDNSKNTLYLQMNSLRAEDTAVYYCARDEAYYDILTGYINAPKNYYYYGMDVWGQGTTVTVSS VL: DIQMTQSPSSLSASVGDRVTITCRASQGIRNDLGWYQQKPGKAPKRLIYAASSLQSGVPSRFSGSGSGTEFTLTISSLQPEDFATYYCLQHNSYPFTFGPGTKVDIK	59.9	87	–	–	–
antibody 356 (antibody, V domains shown) VH: QVQLVQSGAEVKKPGASVKVSCKASGYTFTSYGISWVRQAPGQGLEWMGWISAYHGNTNYAQKLQGRVTMTTDTSTSTAYMELRSLRSDDTAVYYCARVGLWWLGHADAFDIWGQGTMVTVSS VL: DIQMTQSPSSLSASVGDRVTITCRASQGIRNDLGWYQQKPGKAPKRLIYAASSLQSGVPSRFSGSGSGTEFTLTISSLQPEDFATYYCLQHNSYPLTFGGGTKVEIK	–	–	90.8	60.4	–
antibody 287 (antibody, V domains shown) VH: QLQLQESGPGLVKPSETLSLTCTVSGGSISSSSYYWGWIRQPPGKGLEWIGSIFYSGSTYYNPSLKSRVTIFVDTSKNQFSLKLSSVTAADTAVYYCARFDYQVVDLTGFDYWGQGTLVTVSS VL: DIQMTQSPSSLSASVGDRVTITCRASQGIRNDLGWYQQKPGKAPKRLIYAASSLQSGVPSRFSGSGSGTEFTLTIRSLQPEDFATYYCLQYNSYPLTFGGGTKVEIK	60.9	87.4	–	–	–
antibody 528 (antibody, V domains shown) VH: QVQLVQSGAEVKKPGSSVKVSCKASGGTFNSNSISWVRQAPGQGLEWMGRIIPILDITMYARKFQGRVTISADKSTGTAYMDLSSLRSEDTAVYYCATDRDDSSGDYYYGMDVWGQGTTVTVSS VL: DIQMTQSPSSLSASVGDRVTITCRASLSISNYLNWYQQKPGKAPNLLIYAASTLQSGVPSRFSGSGSGTDFTLTISSLQPEDFATYYCQQTYITRWTFGQGTKVEIK	–	–	–	–	median fold over isotype [3]: 3.71 fold over isotype; median fold over isotype [4]: 31.2 fold over isotype
antibody 308 (antibody, V domains shown) VH: QLQLQESGPGLVKPSETLSLTCSVSGGSISSSSYHWGWIRQPPGKGLEWIGSIYYSGSTYYNPSLKSRVTISVDTSKNQFSLKLRSVTAADTAVYYCAGLRVVITFGGVIPKGGAFDIWGQGTMVTVSS VL: QSALTQPASVSGSPGQSITISCTGTSSDVGGYNYVSWYQQHPGKAPKLMIYDVSNRPSGVSNRFSGSKSGNTASLTISGLQAEDEADYYCSSYTSSSTVVFGGGTKLTVL	33.4	7.93	–	–	–
antibody 272 (antibody, V domains shown) VH: QVQLVQSGAEVKKPGASVKVSCKASGYTFTTYYMHWVRQAPGQGLEWMGIINPSGGSASYAQKFQGRVTMTRDTSTSTVYMELSSLRSEDTAVYYCARDHTLVNGDYEYYYGMDVWGQGTTVTVSS VL: SYELTQPPSVSVSPGQTARITCSGDALPKQYAYWYQQKPGQAPVSVIYKDSERPSGIPERISGSSSGTTVTLTISGVQAEDEADYYCQSADSSGTYLVFGGGTKLTVL	40.4	79.7	–	–	–
antibody 520 (antibody, V domains shown) VH: QVQLVESGGGVVQPGRSLRLSCAASGFTFSSYAMHWGRQAPGKGLEWVAVISYDGSNKYYADSVKGRFTISRDNSKNTLYLQMNSLRAEDTAVYYCARDGGSGWLLVGNWFDPWGQGTLVTVSS VL: QSALTQPASVSGSPGQSITISCTGTSSDVGGYNYVSWYQQHPGKAPKLMIYDVSNRPSGVSNRFSGSKSGNTASLTISGLQAEDEADYYCSSYTSSITLYVFGTGTKVTVL	–	–	–	–	median fold over isotype [3]: 7.6 fold over isotype; median fold over isotype [4]: 31.2 fold over isotype
antibody 357 (antibody, V domains shown) VH: QVQLVQSGAEVKKPGSSVKVSCKASGGTFSSYAISWVRQAPGQGLEWMGRIIPILGIANYAQKFQGRVTITADKSTSTAYMELSSLRSEDTAVYYCARGPIAVAGIGPWFDPWGQGTLVTVSS VL: QSVLTQPPSVSAAPGQKVTISCSGSSSNIGNNYVSWYQQLPGTAPKLLIYDNNKRPSGIPDRFSGSKSGTSATLGITGLQTGDEADYYCGTWDSSLSAVVFGGGTKLTVL	–	–	5.37	28	–
antibody 338 (antibody, V domains shown) VH: QVQLQESGPGLVKPSETLSLTCAVSGYSISSDYYWGWIRQPPGKGLEWIGSIYHSGSTYYNPSLKSRVTISIDTSKNQFSLKLSSVTAADTAVYYCARDPGNYDILTGIFDYWGQGTLVTVSS VL: QSALTQPASVSGSPGQSITISCTGTSSDVGVYNYVSWYQQHPGKAPKLMIYDVTNRPSGVSNRFSGSKSGNTASLTISGLQAEDEADYYCSSYTSSSTLAVYVFGTGTKVTVL	–	–	7.81	33.2	–
antibody 525 (antibody, V domains shown) VH: QVQLVESGGGVVQPGRSLRLSCAASGFTFSSYAMHWVRQAPGKGLEWVTVISYNGRNKYYADSVKGRFTISRDNSKNTLYLQMNSLRAEDTAVYWCAREGLGAIVVGLDYWGQGTLVIVSS VL: not shown	–	–	–	–	median fold over isotype [3]: 7.12 fold over isotype; median fold over isotype [4]: 32.4 fold over isotype
antibody 346 (antibody, V domains shown) VH: EVQLVQSGAEVKKPGESLKISCKGSGYSFTSYWIGWVRQMPGKGLEWMGIIYPGDSDTRYSPSFQGQVTISADKSISTAYLQWSSLKASDTAMYYCARHGPQDGYSSSWYLDYWGQGTLVTVSS VL: not shown	–	–	8.57	7.05	–
antibody 310 (antibody, V domains shown) VH: EVQLVESGGGLVQPGGSLRLSCAASGFTFSSYWMSWVRQAPGKGLEWVANIKQDGSEKYYVDSVKGRFTISRDNAKNSLYLQMNSLRAEDTAVYYCARVGSSSWYFDYWGQGTLVTVSS VL: not shown	28.1	5.35	–	–	–
antibody 286 (antibody, V domains shown) VH: QVHLVESGGGVVQPGKSLRLSCAGSGFIFSDFGMHWVRQSPGKGLEWVAVVSYDGSVTKYSDSFEGRFTISRDNSKNTLYLQMDSLRPDDTAIYYCAKGQGANLLHYWGKGILVTVSS VL: DVVLTQSPLSLPVTLGQPASISCRSSESLVYTDGDTYLHWFHQRPGQSPRRLIYKVSNRDSGVPDRFSGSGSGTDFTLKISRVEAEDVGVYYCMQGTHWPFTFGPGTKVDIK	28.2	6.17	–	–	–
antibody 358 (antibody, V domains shown) VH: QVQLVESGGGVVQPGRSLRLSCAASGFNLNSYAMHWVRQASGKGLEWVSLMSYDGSIKYYADSVKGRFTVSGDNSRNTLFLQMNSLRPDDSALYYCVRGGVSGPNSFDLWGQGTTVTVSS VL: DVVMTQSPLSLPVTLGQPASISCRSSQSLVYSDGSTYVNWFQQRPGQSPRRLIYKVSNRDSGVPDRFSGSGSGTDFALKISRVEAEDVGVYYCMQGTHWPVTFGQGTKVEIK	–	–	8.74	38.4	–
antibody 355 (antibody, V domains shown) VH: QVHLVESGGGVVQPGRSLRLSCAASGFTFSSFPMHWVRQAPGKGLEWVAVISYDGGDEHYTDSVEGRFTISRDNSLNTLYLQMSSLRLEDTAVYYCARDRYDSSGYYYVSDYWGQGTLITVSS VL: SYELTQPPSVSVSPGQTARISCSGDALPKQYAYWYQQKPGQAPVLVIYKDSERPSGIPERFSGSSSGTTVTLTISGVQAEDEADYYCQSADSRGTDPWVFGGGTKLTVL	–	–	20.3	8.08	–
